Results taken from US20230174610A1 (Harvard, published 2023).

T1: RXFP1 receptor expressed by transient transfection in HEK293T cells (UniProt Q9HBX9 1-757, limits assumed)
T1 sequence (looked up): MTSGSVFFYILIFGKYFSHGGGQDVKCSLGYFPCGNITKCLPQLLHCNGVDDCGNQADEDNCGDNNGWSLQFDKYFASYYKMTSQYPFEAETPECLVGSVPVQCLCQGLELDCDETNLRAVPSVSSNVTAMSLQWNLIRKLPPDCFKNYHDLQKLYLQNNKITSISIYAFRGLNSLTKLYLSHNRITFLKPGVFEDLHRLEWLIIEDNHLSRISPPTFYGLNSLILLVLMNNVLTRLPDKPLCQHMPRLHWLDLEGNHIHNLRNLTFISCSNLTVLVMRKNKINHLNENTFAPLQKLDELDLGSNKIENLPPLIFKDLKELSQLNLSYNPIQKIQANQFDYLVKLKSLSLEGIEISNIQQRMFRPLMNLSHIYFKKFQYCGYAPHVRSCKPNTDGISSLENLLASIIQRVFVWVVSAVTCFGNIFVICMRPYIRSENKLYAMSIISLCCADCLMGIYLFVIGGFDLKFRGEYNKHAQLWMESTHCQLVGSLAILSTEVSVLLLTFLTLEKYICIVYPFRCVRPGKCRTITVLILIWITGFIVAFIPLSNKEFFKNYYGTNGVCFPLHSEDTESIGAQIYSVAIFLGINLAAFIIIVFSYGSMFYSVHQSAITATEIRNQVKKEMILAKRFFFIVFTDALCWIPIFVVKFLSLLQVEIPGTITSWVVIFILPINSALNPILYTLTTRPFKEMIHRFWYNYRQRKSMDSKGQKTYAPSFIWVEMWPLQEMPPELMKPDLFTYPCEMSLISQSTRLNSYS

B1: SE401, Single-chain relaxin with the combined substitutions of SE201, 204-207, fused to the C-terminus of mouse serum albumin with an N-terminal 8X His-tag (other)
chain: HHHHHHHHRGVFRREAHKSEIAHRYNDLGEQHFKGLVLIAFSQYLQKCSYDEHAKLVQEVTDFAKTCVADESAANCDKSLHTLFGDKLCAIPNLRENYGELADCCTKQEPERNECFLQHKDDNPSLPPFERPEAEAMCTSFKENPTTFMGHYLHEVARRHPYFYAPELLYYAEQYNEILTQCCAEADKESCLTPKLDGVKEKALVSSVRQRMKCSSMQKFGERAFKAWAVARLSQTFPNADFAEITKLATDLTKVNKECCHGDLLECADDRAELAKYMCENQATISSKLQTCCDKPLLKKAHCLSEVEHDTMPADLPAIAADFVEDQEVCKNYAEAKDVFLGTFLYEYSRRHPDYSVSLLLRLAKKYEATLEKCCAEANPPACYGTVLAEFQPLVEEPKNLVKTNCDLYEKLGEYGFQNAILVRYTQKAPQVSTPTLVEAARNLGRVGTKCCTLPEDQRLPCVEDYLSAILNRVCLLHEKTPVSEHVTKCCSGSLVERRPCFSALTVDETYVPKEFKAETFTFHSDICTLPEKEKQIKKQTALAELVKHKPKATAEQLKTVMDDFAQFLDTCCKAADKDTCFSTEGPNLVTRCKDALAGGSDSWKEEVIKLCGRELVRAQIAICGKSTASDAAGANANAGARQLYSALANKCCHVGCTKRSLARFC
B2: SE004, Protein C-tag and His-tag single-chain relaxin (ligand)
chain: EDQVDPRLIDGKGSHHHHHHDSWMEEVIKLCGRELVRAQIAICGMSTWSDAASSHSHSSARQLYSALANKCCHVGCTKRSLARFC
B3: SE005, Truncated His-tag single-chain relaxin (ligand)
chain: HHHHHHEEVIKLCGRELVRAQIAICGMSTWSDAASSHSHSSARQLYSALANKCCHVGCTKRSLARFC
B4: SE001, His-tag single-chain relaxin (ligand)
chain: HHHHHHDSWMEEVIKLCGRELVRAQIAICGMSTWSDAASSHSHSSARQLYSALANKCCHVGCTKRSLARFC

target: T1, RXFP1 receptor expressed by transient …; test: cell-based or functional assay

In order of falling EC50:
1. B1  52.6 nM
2. B2  1.5 nM
3. B3  0.485 nM

In order of falling “Emax (Native two-chain relaxin = 100% Emax)” value:
1. B1  121%
2. B4  118%
3. B2  117%
4. B3  112%
